In patent US11130803B2, “Isoform-selective TGFβ1 inhibitors and use thereof” (Scholar Rock, Inc., priority 2018, dated 2021):
Read-outs that look alike come from different tables or passages of the source.

What was measured:
[1] = test system: mouse models of injury, Marfan's syndrome, and muscular dystrophy; conditions: in vivo; cited from earlier work
[2] = test system: matrix-associated (LTBP1/LTBP3) and cell-associated (GARP/LRRC33) proTGFβ1 complexes; experiment: Octet: average KD and fold bias, matrix- vs cell-associated complexes; format: binding, human; conditions: for Kd: average KD of (E) and (F), cell-associated complexes, read-out: (G) Cell AVRG; for (H) G/D (fold bias): ratio of average KD cell-associated / matrix-associated
From the text: Column (A) of the table lists monoclonal antibodies with discrete amino acid sequences. […] Columns (B), (D), (E) and (F) provide affinities of each of the listed antibodies, measured in KD. […] Average KD values of (B) and (C) are shown in the corresponding column (D), which collectively represents affinities of the antibodies to ECM- or matrix-associated proTGFβ1 complexes. Similarly, Average KD values of (E) and (F) are shown in the corresponding column (G), which collectively represents affinities of the antibodies to cell-surface or cell-associated proTGFβ1 complexes. Finally, relative ratios between the average KD values from columns (D) and (G) are expressed as “fold bias” in column (H). […] This is one way of quantitatively representing and comparing inherent bias of antibodies to their target complexes.
Average KD values between the two matrix-associated and cell-associated complexes are calculated, respectively (see columns (D) and (G)). These average KD values can then be used to ask whether bias in binding activities exists between complexes associated with matrix vs. complexes associated with cell surface (e.g., immune cells). Bias may be expressed as “fold-difference” in the average KD values, as illustrated in Table 8.

[3] = test system: matrix-associated (LTBP1/LTBP3) and cell-associated (GARP/LRRC33) proTGFβ1 complexes; experiment: as above; format: binding, human; conditions: average KD of (B) and (C), read-out: (D) ECM AVRG
[4] = molecular target: T1, recombinant human GARP-proTGFβ1 complex (Homo sapiens, UniProt P01137); experiment: Octet (Biolayer Interferometry) in vitro kinetic binding; conditions: in M
T1 construct: made in house
T1 sequence (P01137 30-390): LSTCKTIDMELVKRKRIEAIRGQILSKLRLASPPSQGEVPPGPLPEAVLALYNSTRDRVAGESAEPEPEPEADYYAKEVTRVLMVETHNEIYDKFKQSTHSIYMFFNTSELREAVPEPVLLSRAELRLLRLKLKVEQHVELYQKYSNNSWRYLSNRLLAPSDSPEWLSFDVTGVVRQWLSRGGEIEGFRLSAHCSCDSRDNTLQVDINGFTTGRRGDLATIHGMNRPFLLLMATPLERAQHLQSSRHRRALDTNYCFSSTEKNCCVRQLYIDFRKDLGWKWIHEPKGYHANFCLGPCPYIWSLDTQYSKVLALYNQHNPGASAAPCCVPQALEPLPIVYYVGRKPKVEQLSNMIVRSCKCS
T1 sequence (Q14392 20-627 partner limits assumed): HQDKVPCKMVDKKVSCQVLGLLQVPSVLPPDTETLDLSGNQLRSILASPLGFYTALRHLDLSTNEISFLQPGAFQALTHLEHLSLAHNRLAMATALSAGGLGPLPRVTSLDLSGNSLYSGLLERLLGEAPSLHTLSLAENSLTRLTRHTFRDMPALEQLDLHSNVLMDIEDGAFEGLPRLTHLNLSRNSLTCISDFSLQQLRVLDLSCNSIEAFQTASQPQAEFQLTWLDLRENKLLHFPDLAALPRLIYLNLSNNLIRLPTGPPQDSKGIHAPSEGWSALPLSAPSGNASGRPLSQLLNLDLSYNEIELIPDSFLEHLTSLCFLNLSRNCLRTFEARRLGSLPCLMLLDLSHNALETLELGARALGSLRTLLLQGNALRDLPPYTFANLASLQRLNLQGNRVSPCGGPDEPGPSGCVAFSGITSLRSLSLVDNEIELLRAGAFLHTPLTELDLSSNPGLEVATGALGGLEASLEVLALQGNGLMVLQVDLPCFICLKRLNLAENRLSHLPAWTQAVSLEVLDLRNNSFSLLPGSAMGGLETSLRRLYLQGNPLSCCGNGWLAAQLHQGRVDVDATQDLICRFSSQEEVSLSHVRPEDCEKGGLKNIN
From the text: (§1) Biolayer Interferometry (BLI):BLI is a label-free technology for optically measuring biomolecular interactions, e.g., between a ligand immobilized on the biosensor tip surface and an analyte in solution. BLI provides the ability to monitor binding specificity, rates of association and dissociation, or concentration, with precision and accuracy. BLI platform instruments are commercially available, for example, from ForteBio and are commonly referred to as the Octet® System.
(§2) BLI-based binding assays are widely used in the art for measuring affinities and kinetics of antibodies to antigens. It is a label-free technology in which biomolecular interactions are analyzed on the basis of optical interference. One of the proteins, for example, an antibody being tested, can be immobilized on the biosensor tip. When the other protein in solution, for example, an antigen, becomes bound to the immobilized antibody, it causes a shift in the interference pattern, which can be measured in real-time. This allows the monitoring of binding specificity, rates of association and dissociation, as well as concentration dependency. […] Due to its ease of use and fast results, BLI-based assays such as the Octet® system (available from ForteBio/Molecular Devices, Fremont Calif.), are particularly convenient when used as an initial screening method to identify and separate a pool of “binders” from a pool of “non-binders” or “weak binders” in the screening process.
(§3) Table 8 below provides non-limiting examples of high-affinity, context-independent proTGFβ1 antibodies encompassed by the present invention. The table provides representative results from in vitro binding assays, as measured by Octet®.
(§4) Column (A) of the table lists monoclonal antibodies with discrete amino acid sequences. […] Columns (B), (D), (E) and (F) provide affinities of each of the listed antibodies, measured in KD. […] Average KD values of (B) and (C) are shown in the corresponding column (D), which collectively represents affinities of the antibodies to ECM- or matrix-associated proTGFβ1 complexes. Similarly, Average KD values of (E) and (F) are shown in the corresponding column (G), which collectively represents affinities of the antibodies to cell-surface or cell-associated proTGFβ1 complexes. Finally, relative ratios between the average KD values from columns (D) and (G) are expressed as “fold bias” in column (H). Thus, the greater the number of column (H) is, the greater bias exists for the particular antibody, when comparing binding preferences of the antibody for matrix-associated complexes and cell-surface complexes. This is one way of quantitatively representing and comparing inherent bias of antibodies to their target complexes. Such analyses may be useful in guiding the selection process for a candidate antibody for particular therapeutic use.
(§5) In some embodiments, the binding affinity of an antibody, or antigen binding portion thereof, to an antigen (e.g., protein complex), such as presenting molecule-proTGFβ1 complexes, is determined using an Octet assay. In some embodiments, an Octet assay is an assay that determines one or more a kinetic parameters indicative of binding between an antibody and antigen. In some embodiments, an Octet® system (ForteBio, Menlo Park, Calif.) is used to determine the binding affinity of an antibody, or antigen binding portion thereof, to presenting molecule-proTGFβ1 complexes. For example, binding affinities of antibodies may be determined using the fortéBio Octet QKe dip and read label free assay system utilizing bio-layer interferometry. In some embodiments, antigens are immobilized to biosensors (e.g., streptavidin-coated biosensors) and the antibodies and complexes (e.g., biotinylated presenting molecule-proTGFβ1 complexes) are presented in solution at high concentration ([…]) to measure binding interactions. […]

[5] = molecular target: T2, recombinant human LTBP1-proTGFβ1 complex (Homo sapiens, UniProt P01137); experiment: as above; conditions: in M
T2 construct: made in house; host or cells: Expi293F cells, transient co-transfection
T2 sequence (P01137 30-390): as the sequence (P01137 30-390) above
T2 sequence (Q14766 873-1507 partner): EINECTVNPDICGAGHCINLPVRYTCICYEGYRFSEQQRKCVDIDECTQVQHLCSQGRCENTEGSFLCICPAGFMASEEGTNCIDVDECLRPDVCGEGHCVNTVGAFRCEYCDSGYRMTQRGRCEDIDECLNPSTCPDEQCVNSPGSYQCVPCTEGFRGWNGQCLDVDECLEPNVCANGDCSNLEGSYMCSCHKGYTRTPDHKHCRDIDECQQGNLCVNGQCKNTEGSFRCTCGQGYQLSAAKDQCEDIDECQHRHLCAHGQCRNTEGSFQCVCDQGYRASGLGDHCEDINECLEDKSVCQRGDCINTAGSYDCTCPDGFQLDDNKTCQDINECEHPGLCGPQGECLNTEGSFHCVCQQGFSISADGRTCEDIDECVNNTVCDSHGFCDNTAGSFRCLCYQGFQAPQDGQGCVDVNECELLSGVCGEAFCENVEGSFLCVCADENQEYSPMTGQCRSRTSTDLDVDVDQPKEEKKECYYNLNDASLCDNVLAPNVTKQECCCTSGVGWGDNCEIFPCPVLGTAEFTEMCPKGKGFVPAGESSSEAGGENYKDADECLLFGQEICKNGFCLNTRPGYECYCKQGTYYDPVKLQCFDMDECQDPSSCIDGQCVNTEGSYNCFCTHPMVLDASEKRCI
From the text: as §1, §2, §3, §4, §5

[6] = molecular target: T3, recombinant human LTBP3-proTGFβ1 complex (Homo sapiens, UniProt P01137); experiment: as above; conditions: in M
T3 construct: made in house; host or cells: Expi293F cells, transient co-transfection
T3 sequence (P01137 30-390): as the sequence (P01137 30-390) above
T3 sequence (Q9NS15 866-1039 partner limits assumed): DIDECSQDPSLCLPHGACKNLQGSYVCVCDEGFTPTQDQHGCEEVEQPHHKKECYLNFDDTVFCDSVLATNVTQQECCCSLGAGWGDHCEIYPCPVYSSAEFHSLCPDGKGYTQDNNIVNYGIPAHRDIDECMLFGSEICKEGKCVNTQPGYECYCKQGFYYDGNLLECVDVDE
From the text: as §1, §2, §3, §4, §5

[7] = molecular target: T4, recombinant human LRRC33-proTGFβ1 complex (Homo sapiens, UniProt P01137); experiment: as above; conditions: in M
T4 construct: made in house
T4 sequence (P01137 30-390): as the sequence (P01137 30-390) above
T4 sequence (Q86YC3 19-650 partner limits assumed): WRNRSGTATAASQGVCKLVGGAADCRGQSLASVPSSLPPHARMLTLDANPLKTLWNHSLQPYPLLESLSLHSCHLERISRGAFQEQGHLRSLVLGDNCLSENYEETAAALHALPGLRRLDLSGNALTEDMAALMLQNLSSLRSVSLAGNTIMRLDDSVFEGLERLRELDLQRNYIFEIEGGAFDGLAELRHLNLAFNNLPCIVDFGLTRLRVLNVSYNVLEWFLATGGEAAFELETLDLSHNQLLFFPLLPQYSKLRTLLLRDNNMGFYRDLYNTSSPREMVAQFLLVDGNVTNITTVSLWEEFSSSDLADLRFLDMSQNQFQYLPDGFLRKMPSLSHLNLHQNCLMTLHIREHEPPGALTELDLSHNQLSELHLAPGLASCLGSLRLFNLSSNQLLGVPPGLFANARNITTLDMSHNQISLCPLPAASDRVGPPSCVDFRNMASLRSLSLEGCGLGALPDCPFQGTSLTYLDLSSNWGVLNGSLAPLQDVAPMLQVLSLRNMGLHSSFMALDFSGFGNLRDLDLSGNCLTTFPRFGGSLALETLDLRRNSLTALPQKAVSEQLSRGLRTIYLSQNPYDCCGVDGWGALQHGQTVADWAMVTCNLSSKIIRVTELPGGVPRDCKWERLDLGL
From the text: as §1, §2, §3, §4, §5

Row | Molecule | (E) hGARP, Cell-associated proTGFb1 (KD) [4] | (B) hLTBP1, Matrix-associated proTGFb1 (KD) [5] | (C) hLTBP3, Matrix-associated proTGFb1 (KD) [6] | (F) hLRRC33, Cell-associated proTGFb1 (KD) [7] | muscle pathology and fibrosis [1] | Kd [2] | (H) G/D (fold bias) [2] | Kd [3]
1 | CCCCc1nc(Cl)c(CO)n1Cc1ccc(-c2ccccc2-c2nn[nH]n2)cc1 [losartan] | – | – | – | – | effective in improving muscle pathology and reducing fibrosis | – | – | –
2 | Cc1ccc(C(=O)Nc2ccc(S(=O)(=O)O)c3cc(S(=O)(=O)O)cc(S(=O)(=O)O)c23)cc1NC(=O)c1cccc(NC(=O)Nc2cccc(C(=O)Nc3cc(C(=O)Nc4ccc(S(=O)(=O)O)c5cc(S(=O)(=O)O)cc(S(=O)(=O)O)c45)ccc3C)c2)c1 [suramin] | – | – | – | – | effective in improving muscle pathology and reducing fibrosis | – | – | –
3 | Ab16: monoclonal antibody; VH SEQ ID NO: 247, VL SEQ ID NO: 241 (antibody, V domains shown) VH: EVQLLESGGGLVQPGGSLRLSCAASGFTFSNYAMSWVRQAPGKGLEWVSAISGSGFTTYYADSVKGRFTISRDNSKNTLYLQMNSLRAEDTAVYYCARVSSGHWDFDYWGQGTLVTVSS VL: DIQLTQSPSSLSASVGDRVTITCRASQSISSYLNWYQQKPGKAPKLLIYAASNLQSGVPSRFSGSGSGTDFTLTISSLQPEDFATYYCQQTYTVPLTFGGGTKVEIK | 4.16E−09 | 1.81E−10 | 1.32E−10 | 6.31E−10 | – | 2.4 nM | 15.307 fold | 0.157 nM

The next lines start with results.

Row | (E) hGARP, Cell-associated proTGFb1 (KD) [4] | (B) hLTBP1, Matrix-associated proTGFb1 (KD) [5] | (C) hLTBP3, Matrix-associated proTGFb1 (KD) [6] | (F) hLRRC33, Cell-associated proTGFb1 (KD) [7] | Molecule | muscle pathology and fibrosis [1] | Kd [2] | (H) G/D (fold bias) [2] | Kd [3]
4 | 8.62E−09 | 1.74E−10 | 2.08E−10 | 6.58E−10 | Ab17: monoclonal antibody; VH SEQ ID NO: 248, VL SEQ ID NO: 241 (antibody, V domains shown) VH: EVQLLESGGGVVQPGGSLRLSCAASGFTFSSFAMTWVRQAPGKGLEWVSAISGSGAATYFADSVKGRFTISRDNSKNTLYLQMNSLRAEDTAVYYCARVSSGHWDFDYWGQGTLVTVSS VL: DIQLTQSPSSLSASVGDRVTITCRASQSISSYLNWYQQKPGKAPKLLIYAASNLQSGVPSRFSGSGSGTDFTLTISSLQPEDFATYYCQQTYTVPLTFGGGTKVEIK | – | 4.64 nM | 24.288 fold | 0.191 nM
5 | 1.15E−08 | 3.12E−10 | 2.57E−10 | 1.02E−09 | Ab18: monoclonal antibody; VH SEQ ID NO: 249, VL SEQ ID NO: 241 (antibody, V domains shown) VH: QVQLVESGGGVVQPGRSLRLSCAASGFTFSDYAMVWVRQAPGKGLEWVSAISGSGAATYFADSVKGRFTISRDNSKNTLYLQMNSLRAEDTAVYYCATVSSGHWDFDYWGQGTLVTVSS VL: DIQLTQSPSSLSASVGDRVTITCRASQSISSYLNWYQQKPGKAPKLLIYAASNLQSGVPSRFSGSGSGTDFTLTISSLQPEDFATYYCQQTYTVPLTFGGGTKVEIK | – | 6.26 nM | 22.00 fold | 0.284 nM
